From the supplement of paper PMC10724198
± gives the standard deviation of the averaged measurements.

Test system: Saccharomyces cerevisiae
Assay: protein stability index of tFT-peptide fusion (C-terminal peptide) (PSI (0-1 scale)); higher = more stable (slower turnover)
Conditions: genetic background: wild type; temperature: 30 C
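Also: PSI is a weighted mean of sequencing reads over stability bins, variants kept only with over 10 reads, mCherry proximal and sfGFP distal, peptide attached via GGGS linker.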

Sequence | protein stability index
LGARGAGAPAPG | 0.7286 ± 0.0037
LGCKGQLFWYIW | 0.6327 ± 0.003
LGCLHRLLGVRL | 0.752 ± 0.048
LGCLRLVPSPPG | 0.757 ± 0.1
LGCVLGLLVFGG | 0.601 ± 0.041
LGFQSRTTRCCG | 0.6685 ± 0.0014
LGFRCLGRGPDH | 0.644 ± 0.033
LGFSDIMSSLVV | 0.801 ± 0.16
LGGGCVRCVFMW | 0.637 ± 0.039
LGGGGLRSRGAG | 0.785 ± 0.21
LGGGGRWVVPGA | 0.722 ± 0.029
LGGGPTGARPAM | 0.782 ± 0.078
LGIEFGVADVGL | 0.786 ± 0.054
LGIRFPLSNELI | 0.867 ± 0.15
LGKIYPFYSILL | 0.7038 ± 0.002
LGLCSFGCERCH | 0.704 ± 0.015
LGLLGSLRTLSF | 0.667 ± 0.14
LGLSCTIFPIGI | 0.679 ± 0.018
LGLYNRFSMFGS | 0.645 ± 0.026
LGQAVGAVGVEV | 0.64 ± 0.072
LGRFRLSRREGG | 0.6706 ± 0.0043
LGRPRRGGGVSG | 0.6998 ± 0.0012
LGRRGVVRVSPR | 0.687 ± 0.052
LGSNLVCFLCVS | 0.566 ± 0.053
LGSRSGPLFPCV | 0.655 ± 0.015
LGTGRGAEGVIG | 0.791 ± 0.071

Sequence | protein stability index
LGTILGWFSICT | 0.59 ± 0.007
LGVFAVGGVRLG | 0.668 ± 0.008
LGVGGLRSRGAG | 0.74 ± 0.2
LGVGGRWGVPGA | 0.715 ± 0.04
LGWGRGGPLSGG | 0.6937 ± 0.0018
LGWWGVWSWGRG | 0.655 ± 0.033
LHDICADRSSIL | 0.739 ± 0.009
LHFYASFPSPLV | 0.669 ± 0.044
LHGASLCVPPSP | 0.5205 ± 0.0013
LHKAATADPPRV | 0.711 ± 0.02
LHKSINPSPHPP | 0.6864 ± 0.0066
LHLGRLVHGGVD | 0.673 ± 0.017
LHLPPPLPSTLP | 0.671 ± 0.012
LHPPLALPRPPP | 0.711 ± 0.05
LHPPPPPPALTP | 0.729 ± 0.068
LHRTKHLRKGHK | 0.6905 ± 0.0033
LIGTAPGITGFN | 0.661 ± 0.011
LISADTFVHFND | 0.725 ± 0.02
LISRLVSSLIHT | 0.621 ± 0.015
LITRLLCSPCSQ | 0.605 ± 0.0059
LKDLGKQVVTVR | 0.587 ± 0.0062
LKFLFTYLGFLS | 0.532 ± 0.03
LKGVVRFISGQD | 0.71735 ± 0.00052
LKKDVYANNLTD | 0.673 ± 0.004
LKKEFSGKEIQD | 0.743 ± 0.049
LKKSYSTPFTHY | 0.69 ± 0.048

Sequence | protein stability index
LKLTFPFWNTGT | 0.728 ± 0.034
LKNGDINYARFG | 0.679 ± 0.083
LKQTNQHKVNTD | 0.643 ± 0.053
LKRDLGGTSTRG | 0.6615 ± 0.0057
LKRGKIVDRGWY | 0.641 ± 0.082
LKRMQKYIDMSS | 0.714 ± 0.11
LKSYHKLKTCSS | 0.678 ± 0.061
LKTLKHRLRHLE | 0.732 ± 0.034
LLAFRTVSVGVL | 0.5212 ± 0.0014
LLCLRGRVTLCP | 0.537 ± 0.031
LLDVFFPRFFCH | 0.611 ± 0.078
LLFDQTRIGMDV | 0.675 ± 0.038
LLFISPPPRCLL | 0.75 ± 0.036
LLFPFLSFLLPL | 0.66 ± 0.037
LLFRCGARSAGG | 0.676 ± 0.022
LLGLVGGVVGLA | 0.624 ± 0.01
LLGPSGRAIKIQ | 0.6659 ± 0.0013
LLHCPSRGFLFS | 0.851 ± 0.17
LLHQSRSQVSFY | 0.717 ± 0.093
LLILGTPKQDSR | 0.67 ± 0.036
LLKGPDLLGRAS | 0.721 ± 0.051
LLLALPSRPPPS | 0.666 ± 0.13
LLLPNPTPPPPP | 0.625 ± 0.0012
LLLPPPVFPPSL | 0.683 ± 0.01
LLLWCRGGLLGS | 0.753 ± 0.024
LLPAPLPTALPL | 0.65 ± 0.07

Sequence | protein stability index
LLPAPPRLLPSS | 0.68 ± 0.024
LLPHCRPGSTAA | 0.692 ± 0.019
LLPPGSSSRVAL | 0.733 ± 0.022
LLPPPLPPLHSS | 0.6828 ± 0.0054
LLPPPLPQAPPT | 0.708 ± 0.03
LLPPPPTPPLNL | 0.688 ± 0.033
LLPPPVFPPLSP | 0.753 ± 0.013
LLPPQPYTPLHL | 0.679 ± 0.13
LLPPTLHPPHLP | 0.751 ± 0.0096
LLPRQSRYNAHF | 0.669 ± 0.075
LLPRSSPTPLAH | 0.735 ± 0.066
LLPSAAKLTLLP | 0.77 ± 0.07
LLPSAAPPPQFL | 0.686 ± 0.035
LLPSPLPPHPPP | 0.637 ± 0.053
LLPSRAPTSIPL | 0.686 ± 0.037
LLQQILKDYAEI | 0.686 ± 0.033
LLRDRRQETILK | 0.623 ± 0.092
LLRPPSAPSTLL | 0.706 ± 0.084
LLRSEETTIEPF | 0.7531 ± 0.004
LLRTHTTPKLGG | 0.661 ± 0.051
LLSASPASLSFL | 0.706 ± 0.054
LLSFFLSPPSIL | 0.734 ± 0.02
LLSHLSPCTRIG | 0.606 ± 0.051
LLSHPDLPPIPP | 0.503 ± 0.086
LLSLSGVLLVPP | 0.656 ± 0.013
LLSLVYSPLSPL | 0.664 ± 0.035

Sequence | protein stability index
LLSRLVVRGLVS | 0.629 ± 0.087
LLSRLWPASSSG | 0.672 ± 0.08
LLSSFIFSILFF | 0.496 ± 0.0085
LLTGVPRFSLDS | 0.683 ± 0.014
LLTSCLLSCCFR | 0.671 ± 0.027
LLYPALQHVSSV | 0.721 ± 0.12
LMLFCLGCDMSV | 0.576 ± 0.027
LMYGCAQHRNRS | 0.61 ± 0.033
LPAPGRPSPCRL | 0.809 ± 0.041
LPAPPPHPLSPV | 0.7161 ± 0.0063
LPAPRFLVPAFL | 0.637 ± 0.025
LPAPSPPSFPAP | 0.743 ± 0.099
LPASPGSVPFLF | 0.716 ± 0.084
LPCPRPVPPSPA | 0.626 ± 0.018
LPDPPEPHLRLP | 0.694 ± 0.025
LPDPPLSPPPVR | 0.675 ± 0.016
LPFLPPPPPLRP | 0.694 ± 0.11
LPFRPWLPRSLI | 0.68 ± 0.059
LPGPDLLSRMAS | 0.659 ± 0.019
LPHFHPPLDPPA | 0.692 ± 0.0079
LPHPPTPPLPRP | 0.667 ± 0.078
LPHSPSLPPAFP | 0.708 ± 0.032
LPHTRPLPPRVD | 0.704 ± 0.015
LPILRVVNLMGL | 0.5935 ± 0.0048
LPISASLLSFPL | 0.716 ± 0.048
LPLASIYQLRSN | 0.713 ± 0.039

Sequence | protein stability index
LPLPPASRSAPP | 0.589 ± 0.028
LPLPPLLPPPSP | 0.68 ± 0.073
LPLPPLRSSRPL | 0.665 ± 0.036
LPLPPSFVHLPF | 0.732 ± 0.05
LPLPSPLLPPRP | 0.712 ± 0.0051
LPLRLVPLFSPP | 0.722 ± 0.025
LPLYSFSVDFSF | 0.576 ± 0.0059
LPNRRRLFLFPS | 0.735 ± 0.05
LPPAFRIPHTWY | 0.71 ± 0.0071
LPPGFPYLSQLP | 0.666 ± 0.052
LPPHPPREAPPN | 0.682 ± 0.083
LPPLPPSPPSPR | 0.697 ± 0.029
LPPPHPPFPPRF | 0.715 ± 0.059
LPPPHPPTPAPP | 0.621 ± 0.075
LPPPLPSTRPVF | 0.6943 ± 0.005
LPPPPLTLPPPP | 0.694 ± 0.02
LPPPPPPPPPSP | 0.82377 ± 0.00068
LPPPPPSRSRPV | 0.712 ± 0.039
LPPPRPPASPSL | 0.677 ± 0.033
LPPPSFPSISLF | 0.675 ± 0.14
LPPPSPPPPPSP | 0.68 ± 0.028
LPPPTPPPPLLP | 0.779 ± 0.093
LPPPTSFPSFPP | 0.724 ± 0.027
LPPRSPLYPLPP | 0.613 ± 0.018
LPPSPPTVPSPP | 0.67 ± 0.027
LPPSSLPLPCLL | 0.793 ± 0.21

Sequence | protein stability index
LPPSSSPSYIFS | 0.744 ± 0.047
LPPTPSSPPPPL | 0.709 ± 0.06
LPPVQARDPNWQ | 0.6367 ± 0.0014
LPQTVPPPPSPP | 0.624 ± 0.06
LPRALLLHGHRP | 0.771 ± 0.067
LPRFRNRFPRRW | 0.664 ± 0.036
LPRLHLSPASPP | 0.611 ± 0.048
LPSARSLVSPSP | 0.74 ± 0.0092
LPSPAFLTPPPL | 0.788 ± 0.1
LPSPHPPPPPAH | 0.727 ± 0.081
LPSPISLSPPLP | 0.652 ± 0.051
LPSPPPLISLIP | 0.644 ± 0.12
LPSPRRPPTPSA | 0.657 ± 0.015
LPSPSSSPPPFP | 0.7274 ± 0.0013
LPSRLPPQPSPA | 0.687 ± 0.071
LPTLFPSAPSAI | 0.664 ± 0.05
LPVPLFPLFLTS | 0.573 ± 0.011
LPVPTLGRPLSL | 0.69 ± 0.034
LPVVGLVPPARS | 0.5103 ± 0.003
LPYSAPPISLTN | 0.702 ± 0.011
LQCAVPPRDLTS | 0.645 ± 0.074
LQHCSAPLLTNS | 0.74 ± 0.085
LQLKNTNKNKTT | 0.666 ± 0.047
LQPPAPPSPQSD | 0.702 ± 0.081
LRAPRGEFHWFL | 0.684 ± 0.11
LRAVCDLTGSRV | 0.68 ± 0.072

Sequence | protein stability index
LRCCGGCGVCAL | 0.686 ± 0.03
LRCLTIILYSMV | 0.549 ± 0.033
LRCPLPFFSAFF | 0.704 ± 0.11
LRDIEEIHRRGA | 0.782 ± 0.013
LRDLLVFCDLFR | 0.695 ± 0.0082
LRDQEYAMRPPC | 0.693 ± 0.08
LRDWCMLGELAR | 0.742 ± 0.014
LREENKKSETKR | 0.705 ± 0.027
LRFRTVTRSGLR | 0.626 ± 0.048
LRGDGGLFGDSG | 0.655 ± 0.035
LRGLAVWCGYFS | 0.619 ± 0.02
LRGRRPFSQRAT | 0.662 ± 0.034
LRGRYNDVRHGK | 0.708 ± 0.053
LRHSCSTYRIFS | 0.683 ± 0.028
LRIGVEAGRAHR | 0.648 ± 0.033
LRIRSTSSPPRP | 0.74 ± 0.015
LRKVIGVSFCLA | 0.542 ± 0.049
LRLPPPPPLPHV | 0.704 ± 0.033
LRMWFGLMRPDA | 0.66 ± 0.034
LRNNKIKLIQKK | 0.7809 ± 0.0034
